Experimental data published in US9862971B2 (BUNDESREPUBLIK DEUTSCHLAND, LETZTVERTRETEN DURCH DEN …, dated 2018).

Target: CD46 (human, UniProt P15529)
Assay: cell-based or functional assay

B1: MeV HEdm wildtype (wt) protein (other)
chain: MSPQRDRINAFYKDNPHPKGSRIVINREHLMIDRPYVLLAVLFVMFLSLIGLLAIAGIRLHRAAIYTAEIHKSLSTNLDVTNSIEHQVKDVLTPLFKIIGDEVGLRTPQRFTDLVKFISDKIKFLNPDREYDFRDLTWCINPPERIKLDYDQYCADVAAEELMNALVNSTLLETRTTNQFLAVSKGNCSGPTTIRGQFSNMSLSLLDLYLGRGYNVSSIVTMTSQGMYGGTYLVEKPNLSSKRSELSQLSMYRVFEVGVIRNPGLGAPVFHMTNYLEQPVSNDLSNCMVALGELKLAALCHGEDSITIPYQGSGKGVSFQLVKLGVWKSPTDMQSWVPLSTDDPVIDRLYLSSHRGVIADNQAKWAVPTTRTDDKLRMETCFQQACKGKIQALCENPEWAPLKDNRIPSYGVLSVDLSLTVELKIKIASGFGPLITHGSGMDLYKSNHNNVYWLTIPPMKNLALGVINTLEWIPRFKVSPYLFTVPIKEAGGDCHAPTYLPAEVDGDVKLSSNLVILPGQDLQYVLATYDTSRVEHAVVYYVYSPSRSFSYFYPFRLPIKGVPIELQVECFTWDQKLWCRHFCVLADSESGGHITHSGMVGMGVSCTVTREDGTNRR
titer [t.u./ml] of HIV-1 vector particles on 293T cells, concentrated supernatant: 0 t.u./ml
titer [t.u./ml] of HIV-1 vector particles on U-87MG cells, concentrated supernatant: 0 t.u./ml
